The values that follow come from PMC2248580.

Usually Kd stands for the equilibrium constant for the complex coming apart. The low end stands for a tighter complex, the high end for a looser complex. One may read the koff as the rate constant with which the complex falls apart. Read a high koff as fast dissociation. The term kon denotes a measure of how fast the partners come together.

The target of this assay is human activated blood coagulation factor X (FXa) (human). Put plainly: SPR; […]; 37°C; HBS (10 mM Hepes, 150 mM NaCl, 5 mM CaCl2, 0.005% P20, pH 7.4); Langmuir fit; […]. Background: Surface plasmon resonance follows binding to a sensor surface in real time, without labels.
Chain of human activated blood coagulation factor X (FXa) (human) (P00742 whole entry): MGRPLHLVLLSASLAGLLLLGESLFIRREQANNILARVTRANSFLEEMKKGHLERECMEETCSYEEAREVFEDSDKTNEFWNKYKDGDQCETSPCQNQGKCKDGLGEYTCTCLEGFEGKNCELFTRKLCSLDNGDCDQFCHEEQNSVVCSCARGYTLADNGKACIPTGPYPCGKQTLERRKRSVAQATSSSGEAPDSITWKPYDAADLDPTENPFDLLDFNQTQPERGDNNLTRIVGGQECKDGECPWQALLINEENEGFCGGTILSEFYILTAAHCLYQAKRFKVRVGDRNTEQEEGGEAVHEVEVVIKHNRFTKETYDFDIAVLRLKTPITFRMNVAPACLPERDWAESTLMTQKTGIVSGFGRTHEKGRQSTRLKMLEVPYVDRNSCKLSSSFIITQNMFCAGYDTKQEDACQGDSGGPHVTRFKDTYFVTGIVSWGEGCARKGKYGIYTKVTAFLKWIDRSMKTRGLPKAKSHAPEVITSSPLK

B1: isoform A of ammodytoxin from Vipera ammodytes ammodytes venom (enzyme)
chain: SLLEFGMMILGETGKNPLTSYSFYGCYCGVGGKGTPKDATDRCCFVHDCCYGNLPDCSPKTDRYKYHRENGAIVCGKGTSCENRICECDRAAAICFRKNLKTYNYIYRNYPDFLCKKESEKC
In the case of B1, the Kd stood at 30 nM, the off-rate constant (koff) was 0.007 s⁻¹ and the kon turned out to be 220000 M⁻¹ s⁻¹.

B2: Non-pancreatic secreted human group IIA phospholipase A2 (enzyme)
chain: NLVNFHRMIKLTTGKEAALSYGFYGCHCGVGGRGSPKDATDRCCVTHDCCYKRLEKRGCGTKFLSYKFSNSGSRITCAKQDSCRSQLCECDKAAATCFARNKTTYNKKYQYYSNKHCRGSTPRC
Molecule B2 showed a Kd of 14 nM, an off-rate (koff) of 0.029 s⁻¹ and a kon of 2e+06 M⁻¹ s⁻¹.
